Test results reported in patent US7410775B2, “Method for making recombinant peptides or proteins using soluble endoproteases” (Bio-Ker S.R.L., priority 2000, dated 2008).
Each block holds one molecule with its values, some of them ahead of it. Residues, ends and D or L forms follow the SMILES beside them. *: point of attachment. pNA = O=[N+]([O-])c1ccc(N*)cc1; Cbz = O=C(OCc1ccccc1)*

Legend:
[1] = biological target: T1, Kluyveromyces lactis Kex1 protease, soluble secreted variant ss-Kex1-C600 (truncated at amino acid 600; parent Kex1 SEQ ID NO: 3) (Kluyveromyces lactis, UniProt P09231); experiment: Kinetic constants of ss-Kex1-C600 (single initial substrate concentration, progress curve, Michaelis-Menten fit); type: biochemical
T1 sequence (P09231 103-600): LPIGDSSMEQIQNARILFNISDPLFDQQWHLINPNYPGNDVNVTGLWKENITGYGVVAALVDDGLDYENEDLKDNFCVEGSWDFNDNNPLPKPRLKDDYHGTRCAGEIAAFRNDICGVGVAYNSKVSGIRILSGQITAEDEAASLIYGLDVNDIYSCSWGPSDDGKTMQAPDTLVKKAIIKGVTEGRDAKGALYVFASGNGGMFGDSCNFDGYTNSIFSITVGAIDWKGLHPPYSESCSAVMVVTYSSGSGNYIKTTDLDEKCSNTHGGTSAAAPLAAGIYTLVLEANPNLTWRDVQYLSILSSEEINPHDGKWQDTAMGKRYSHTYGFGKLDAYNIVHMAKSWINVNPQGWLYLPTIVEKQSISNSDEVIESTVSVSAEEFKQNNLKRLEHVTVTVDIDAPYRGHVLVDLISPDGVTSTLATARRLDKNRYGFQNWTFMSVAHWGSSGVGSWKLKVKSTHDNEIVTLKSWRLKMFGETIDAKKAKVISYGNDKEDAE
Procedure: (§1) The enzyme activity was determined by a calorimetric test which exploits the capacity of the enzyme to hydrolyse the substrate Z-L-tyrosine-L-lysine-L-arginine-p-nitroanilide (Z-Y-K-R-pNA). The incubation mixture comprises 0.1 mM Z-Y-K-R-pNA in 0.2 M Hepes, pH 7.0 and 1 mM CaCl2, in a total volume of 1.5 ml at 37° C. The reaction is monitored at 405 nm, a wavelength at which the maximum decrease in the molar extinction coefficient (As), equal to 10.9 mM^−1 cm^−1, occurs. An enzyme unit is defined as being the quantity of enzyme that catalyses the transformation of 1 μmole of substrate per minute under the conditions described above. […]
(§2) The kinetic constants were determined by a simplified procedure which requires that measurements be carried out at a single initial concentration of substrate and until the substrate is exhausted. The method provides that, at various times, the average values of residual concentration and rate be determined and is applicable in those cases in which the enzyme catalyses an entirely irreversible reaction under the operating conditions, and is not subject to inhibition by product (Segel, I. H. (1975) Enzyme Kinetics, Wiley, New York). […]

[2] = biological target: T2, Saccharomyces cerevisiae Kex2 protease, soluble secreted form ss-Kex2-C613 (parent Kex2 SEQ ID NO: 4) (Saccharomyces cerevisiae, UniProt P13134); experiment: Kinetic constants of ss-Kex2-C613 (single initial substrate concentration, progress curve, Michaelis-Menten fit); type: biochemical
T2 construct: pro-region cut at Lys108-Arg109; from yeast
T2 sequence (P13134 1-613): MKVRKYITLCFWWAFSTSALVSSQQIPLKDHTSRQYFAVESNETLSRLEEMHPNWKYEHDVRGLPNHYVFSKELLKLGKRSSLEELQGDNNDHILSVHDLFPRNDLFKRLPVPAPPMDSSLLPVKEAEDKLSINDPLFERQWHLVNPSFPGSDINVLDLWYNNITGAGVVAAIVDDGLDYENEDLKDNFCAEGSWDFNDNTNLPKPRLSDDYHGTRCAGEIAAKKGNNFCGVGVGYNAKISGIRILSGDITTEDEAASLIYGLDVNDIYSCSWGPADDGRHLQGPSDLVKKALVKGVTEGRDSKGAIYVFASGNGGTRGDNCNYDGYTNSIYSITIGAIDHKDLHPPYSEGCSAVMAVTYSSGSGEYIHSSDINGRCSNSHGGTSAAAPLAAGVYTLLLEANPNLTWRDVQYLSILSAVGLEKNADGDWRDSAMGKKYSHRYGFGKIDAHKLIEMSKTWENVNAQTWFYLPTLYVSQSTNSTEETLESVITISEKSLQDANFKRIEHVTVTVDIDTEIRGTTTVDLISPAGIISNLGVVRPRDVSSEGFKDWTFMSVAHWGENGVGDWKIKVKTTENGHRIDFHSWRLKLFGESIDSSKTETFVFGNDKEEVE
Procedure: as §1, §2

[3] = substrate: N=C(N)NCCC[C@H](NC(=O)[C@H](CCCCN)NC(=O)[C@H](Cc1ccc(O)cc1)NC(=O)OCc1ccccc1)C(=O)Nc1ccc([N+](=O)[O-])cc1; experiment: Kinetic constants of ss-Kex1-C600 (single initial substrate concentration, progress curve, Michaelis-Menten fit); type: biochemical, Kluyveromyces lactis; conditions: other: ss-Kex1-C600; pH 7.0
Procedure: The enzyme activity was determined by a calorimetric test which exploits the capacity of the enzyme to hydrolyse the substrate Z-L-tyrosine-L-lysine-L-arginine-p-nitroanilide (Z-Y-K-R-pNA). The incubation mixture comprises 0.1 mM Z-Y-K-R-pNA in 0.2 M Hepes, pH 7.0 and 1 mM CaCl2, in a total volume of 1.5 ml at 37° C. The reaction is monitored at 405 nm, a wavelength at which the maximum decrease in the molar extinction coefficient (As), equal to 10.9 mM^−1 cm^−1, occurs. An enzyme unit is defined as being the quantity of enzyme that catalyses the transformation of 1 μmole of substrate per minute under the conditions described above. Unless expressly indicated otherwise, the data presented in Table 2 refer to the activity secreted in the growth medium by derivatives of the W303 strain which was grown in a flask at 30° C., with agitation (220 rpm), in 1040 medium-2% galactose (except for strains NP255 and NP265 in which the carbon source added to the growth medium was 2% glucose). Various samples were taken along the growth curve for each strain. […] The invention is therefore not limited by the type of promoter used, as long as the levels of secretion of the endoprotease of the invention are satisfactory.
The kinetic constants were determined by a simplified procedure which requires that measurements be carried out at a single initial concentration of substrate and until the substrate is exhausted. The method provides that, at various times, the average values of residual concentration and rate be determined and is applicable in those cases in which the enzyme catalyses an entirely irreversible reaction under the operating conditions, and is not subject to inhibition by product (Segel, I. H. (1975) Enzyme Kinetics, Wiley, New York). The results so obtained were processed using the Grafit programme, which permitted the interpolation of the Michaelis-Menten profile and the determination of the values of Km and Vmax, presented in Table 3. kcat and the kcat/Km ratio were then obtained from those values and from the enzyme concentration.

[4] = substrate: N=C(N)NCCC[C@H](NC(=O)[C@H](CCCCN)NC(=O)[C@H](Cc1ccc(O)cc1)NC(=O)OCc1ccccc1)C(=O)Nc1ccc([N+](=O)[O-])cc1; experiment: Kinetic constants of ss-Kex2-C613 (single initial substrate concentration, progress curve, Michaelis-Menten fit); type: biochemical, Saccharomyces cerevisiae; conditions: other: ss-Kex2-C613; pH 7.0
Procedure: as §1, §2

- Vmax [1]: 1720 (ΔA min^−1) × 10^3
- Vmax [2]: 1029 (ΔA min^−1) × 10^3
Molecule: N=C(N)NCCC[C@H](NC(=O)[C@H](CCCCN)NC(=O)[C@H](Cc1ccc(O)cc1)NC(=O)OCc1ccccc1)C(=O)Nc1ccc([N+](=O)[O-])cc1 [Z-Y-K-R-pNA, Z-L-tyrosine-L-lysine-L-arginine-p-nitroanilide] (Cbz-Tyr-Lys-Arg-pNA)

B1: Kluyveromyces lactis Kex1 protease, soluble secreted variant ss-Kex1-C600 (truncated at amino acid 600; parent Kex1 SEQ ID NO: 3) (Kluyveromyces lactis NRRL … (protein)
chain: T1 sequence (P09231 103-600)
- Km [3]: 61.4 µM
- kcat [3]: 3070 s⁻¹
- kcat/Km [3]: 5e+07 M⁻¹ s⁻¹

B2: Saccharomyces cerevisiae Kex2 protease, soluble secreted form ss-Kex2-C613 (parent Kex2 SEQ ID NO: 4) (Saccharomyces cerevisiae S288C) (protein)
chain: T2 sequence (P13134 1-613)
notes: pro-region cut at Lys108-Arg109; from yeast
- Km [4]: 56.8 µM
